Literature values, collected in article PMC7830187.
pKd: −log10 of the molar value.

Molecular target: synthetic peptide

With intersectin-1 SH3 (from UniProt Q15811) as the substance, how does the pKd read?
The pKd was 4.30.
